Ends that are not written are not given here.
How the values were obtained:
VPAC1R = biological target: T1, VPAC1R (Homo sapiens, UniProt P32241); test: In vitro measurement of cAMP activation in HDMEC; type: cell-based
T1 construct: To confirm that HDMEC express functional VPAC1R, we kept HDMEC in FCS/nutrient deficient medium for 24 h; endogenous in cells; host or cells: HDMEC (human dermal microvascular endothelial cells)
T1 sequence (P32241 31-457): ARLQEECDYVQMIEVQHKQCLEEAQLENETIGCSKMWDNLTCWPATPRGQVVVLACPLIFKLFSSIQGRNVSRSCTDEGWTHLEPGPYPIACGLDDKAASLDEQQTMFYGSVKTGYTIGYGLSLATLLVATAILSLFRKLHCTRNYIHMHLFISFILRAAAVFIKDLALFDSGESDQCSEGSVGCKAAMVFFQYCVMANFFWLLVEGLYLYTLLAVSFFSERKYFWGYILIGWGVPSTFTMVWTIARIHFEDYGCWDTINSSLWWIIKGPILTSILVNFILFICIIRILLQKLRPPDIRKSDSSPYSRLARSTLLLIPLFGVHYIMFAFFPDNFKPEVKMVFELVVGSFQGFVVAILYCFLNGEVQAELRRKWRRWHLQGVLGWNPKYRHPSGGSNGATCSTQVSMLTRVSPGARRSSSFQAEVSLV
Experimental: For example, Human Dermal Microvascular Endothelial cells (HDMEC) can be grown in endothelial cell growth medium. Lyophilized PACAP1-38 can be diluted in the appropriate volume of HDMEC assay medium immediately prior to use. IBMX (3-Isobutyl-1-Methylxanthin) can be added to the medium as a phosphodiesterase inhibitor in order to measure all the intracellular built cAMP after receptor stimulation without the intrinsic phosphdiesterase cleaving some of it. After 24 h cells can be harvested and extracted with 65% ethanol in PBS which can be lyophilized and the cAMP concentration can be examined using a cAMP EIA-direct assay (Amersham Pharmacia Biotech).
Pretreatment with antagonist was 3 min before agonist stimulation. […] Experiments were performed at least three times). IBMX (3-Isobutyl-1-Methylxanthin; 4 mM) was added to the medium as a phosphodiesterase inhibitor in order to measure all the intracellular built cAMP after receptor stimulation without the intrinsic phosphodiesterase cleaving some of it.

[1] = Systemic parameters: pulse and blood pressure RR syst./diast. during PACAP infusion; type: in vivo, human
Description: To test whether these prominent effects in human skin (erythema, edema) and difference in skin temperature [ΔT(° C.)] were due to a local vascular effect and not due to a secondary systemic effect we measured systemic parameters such as pulse (B/min) and blood pressure RR syst./diast. (mm Hg). […] Thus, PACAP-induced changes are most likely due to a local effect in cutaneous vasculature.

HDMEC = test: ELISA for NO release by HDMEC; type: cell-based, human
Description: In an alternative approach, the determination of the activity of PACAP signalling pathway can be carried out using an Enzyme-Linked Immunosorbent Assay (ELISA) for nitric oxide (NO) production in HDMEC. To study cytokine release by HDMEC after PACAP stimulation, cells can be stimulated as described above and supernatants can be collected and frozen until use for ELISA assays. For the detection of NO release, NO-ELISA kits, for example from BioSource Int. can be used.
PACAP-induced release of NO in HDMEC. After finding that HDMEC express functional VPAC1R and that VPAC1R is the crucial receptor in human skin epithelium on the protein level, we examined whether PACAP is capable of releasing NO from HDMEC at similar concentrations. Therefore, we performed specific ELISAs with supernatants collected at time-points between […] (FIG. 12). Indeed, PACAP (10^−9 M) induced the release of NO (582%+/−25) by HDMEC as compared to control with a maximal effect at 15 min.

VPAC1R mRNA = test: Semiquantitative RT-PCR of VPAC1R mRNA in HDMEC; type: cell-based, human; details: 6 h
Experimental: To verify our immunohistochemical observation on the mRNA level that the PACAP-induced effects in human dermal endothelial cells are mediated via VPAC1R, we performed RT PCR analysis for VPAC1R, VPAC2R and PAC1R in HDMEC (FIG. 11. Semiquantitative RT-PCR and gel electrophoresis of VPAC1R (FIG. 11A), PAC1R (FIG. 11B) and β-actin (FIG. 11C) in HDMEC. M=marker; lane 1: unstimulated HDMEC; lane 2: TNFα stimulated (4 ng/ml) HDMEC; lane 3 (11A): LPS-stimulated (10 ng/ml) HDMEC; lane 3 (11 B and 11C): HNK cells as positive control; lane 4: RT-control (negative control) In non-stimulated HDMEC cells, mRNA message was only found for PACAP and VPAC1R (FIG. 11A), but not PAC1R (FIG. 11B;) and VPAC2R (data not shown). Note that the PAC1R signal is positive in HNK cells that were used as a positive control. To examine whether proinflammatory mediators such as TNFα or LPS are capable of regulating VPAC1R mRNA expression, HDMEC were harvested without or 6 h after stimulation with TNFα (concentration: 4 ng/ml) or LPS (concentration: 10 ng/ml), respectively, and semiquantitative RT PCR was performed (FIG. 11). To consider the relative mRNA amount in the samples amplification of the housekeeping gene β-actin served as an internal control (FIG. 11C), TNFα as well as LPS induced upregulation of VPAC1R mRNA as compared to the unstimulated controls (FIG. 11). […]

human skin [2] = test: Skin temperature (ST) in human volunteers before and after intravenous peptide application; type: in vivo
Experimental: First, the skin temperature (ST) was measured in different human body regions before and after continuous intravenous application of 100 pmol/kg b.w./h PACAP1-27. Under basal conditions a ST of 33.51±0.25° C. was measured at 0 min. Differences of ST [ΔT(° C.)] were measured after 5, 15, 30, 45, 60 min (FIG. 1: Changes in skin temperature [ΔT(° C.)] as compared to basal (0=33.51±0.25° C.) before and after continuous infusion of 100 pmol/kg b.w./h PACAP1-27 Mean±SEM, *=p<0.05 (n=10)). […] This increase persisted even after 30 min although less dramatic (+1.8° C.±0.26). […] This PACAP-induced effect in human skin was dose-dependent (FIG. 2: Changes in skin temperature [ΔT(° C.)] as compared to basal after continuous infusion of 7.5, 15, or 30 pmol/kg b.w./h PACAP1-27. Mean±SEM, *=p<0.05 (n=9). Mean time until first flush symptoms occurred was 46.03±5.30 min.). […] Next, ST was measured in different body regions before and after a bolus injection of […] PACAP1-27. […] Changes in skin temperature [ΔT(° C.)] as compared to basal ([…]=33.51±0.25° C.) under different conditions of continuous infusion and concentrations (◯=1 μg/kg b.w./h PACAP1-27; o=100 pmol/kg b.w./h). Mean±SEM, *=p<0.05 (n=10)). […] Mean±SEM, *=p<0.05 (n=7)).

human skin [3] = test: Flush phenomenon (erythema, edema) in volunteers after intravenous PACAP1-27; type: in vivo
Experimental: B) Flush phenomenon in a probationer after intravenous application of PACAP1-27. Note cutaneous erythema and facial as well as a marked periorbital edema 30 min after application). […] The approximate duration when first signs of a “flush” occurred were 46.03±5.3 min with 100 pmol/kg b.w./h PACAP1-27. The erythema persisted approximately for 6 h.

[4] = 30 min, change from 7.5 to 15 pmol/kg/h
[5] = 60 min, change from 15 to 30 pmol/kg/h

## Pituitary adenylate cyclase activating polypeptide [PACAP]
VPAC1R; 10^−9 M, IBMX 4 mM
  cAMP activation compared to the negative control: more than 4 fold
VPAC1R; FIG. 10
  activation of VPAC1R in HDMEC (cAMP): dose-dependent activation
[1]; 5 min, infusion 7.5 pmol/kg/h
  R diastol.: 72 ± 4 mmHg
  R systol.: 107 ± 4 mmHg
  pulse: 64 ± 3 B/min
[1]; 15 min, infusion 7.5 pmol/kg/h
  R diastol.: 75 ± 3 mmHg
  R systol.: 109 ± 4 mmHg
  pulse: 66 ± 4 B/min
[1]; [4]
  R diastol.: 75 ± 3 mmHg
  R systol.: 111 ± 5 mmHg
  pulse: 68 ± 3 B/min
[1]; 35 min, infusion 15 pmol/kg/h
  R diastol.: 74 ± 4 mmHg
  R systol.: 111 ± 5 mmHg
  pulse: 69 ± 3 B/min
[1]; 45 min, infusion 15 pmol/kg/h
  R diastol.: 74 ± 4 mmHg
  R systol.: 111 ± 5 mmHg
  pulse: 73 ± 4 B/min
[1]; [5]
  R diastol.: 74 ± 3 mmHg
  R systol.: 111 ± 5 mmHg
  pulse: 69 ± 3 B/min
[1]; 65 min, infusion 30 pmol/kg/h
  R diastol.: 74 ± 3 mmHg
  R systol.: 109 ± 5 mmHg
  pulse: 71 ± 3 B/min
[1]; 75 min, infusion 30 pmol/kg/h
  R diastol.: 74 ± 3 mmHg
  R systol.: 110 ± 5 mmHg
  pulse: 72 ± 2 B/min
[1]; 90 min (end of infusion)
  R diastol.: 72 ± 4 mmHg
  R systol.: 109 ± 5 mmHg
  pulse: 69 ± 3 B/min
[1]; 100 min, after end of infusion
  R diastol.: 73 ± 4 mmHg
  R systol.: 109 ± 5 mmHg
  pulse: 66 ± 4 B/min
[1]; 110 min, after end of infusion
  R diastol.: 72 ± 4 mmHg
  R systol.: 109 ± 4 mmHg
  pulse: 68 ± 4 B/min
[1]; 120 min, after end of infusion
  R diastol.: 74 ± 3 mmHg
  R systol.: 112 ± 4 mmHg
  pulse: 71 ± 4 B/min
[1]; during and after infusion
  differences in RR syst./diast. or pulse: No measurable differences
HDMEC; 10^−9 M
  release of NO as compared to control: 582%
  time of maximal effect on NO release: 15 min
HDMEC; with TNFα
  NO release on incubation together with TNFα, versus TNFα alone: additive effect

## PACAP6-27 (FTDSYSRYRKQMAVKKYLAAVL; ends and bridges not checked; UniProt P18509 137-158, looked up, fragment)
VPAC1R; 10^-7 M (100× the agonist), pretreatment 3 min before agonist
  effect on agonist-induced cAMP activation: cut in half
HDMEC; preincubation before PACAP
  PACAP-induced NO release after antagonist preincubation (value in brackets): 79+/−22
  effect of preincubation on PACAP-induced NO release: slightly enhanced
HDMEC; with TNFa
  NO release when TNFa was incubated with the antagonist: significantly lower

## LPS
VPAC1R mRNA; 10 ng/ml
  VPAC1R mRNA compared to unstimulated controls: upregulation

## vasoactive intestinal peptide (HSDAVFTDNYTRLRKQMAVKKYLNSILN; ends and bridges not checked; UniProt P01282 125-152, looked up) [VIP1-28]
Human skin [2]; i.v. infusion 20 pmol/kg b.w./h, n=7
  increase of skin temperature vs basal: did not result in a significant increase of ST
Human skin [2]; i.v. infusion 100 pmol/kg b.w./h, maximum after 60 min, n=7
  increase of skin temperature ΔT vs basal: 1.36 °C

## TNFα
VPAC1R mRNA; 4 ng/ml
  VPAC1R mRNA compared to unstimulated controls: upregulation

## PACAP1-27
Human skin [3]; 100 pmol/kg b.w./h
  approximate duration when first signs of a flush occurred: 46.03 ± 5.3 min
Human skin [3]; FIG. 2: continuous infusion of 7.5, 15, or 30 pmol/kg b.w./h, n=9
  mean time until first flush symptoms occurred: 46.03 ± 5.30 min
Human skin [3]; after i.v. application
  persistence of erythema: ~6 h
Human skin [3]; all participants, bolus and continuous infusion
  erythema (flushing) and edema compared to control injections: significant development of erythema (flushing) and edema
Human skin [3]; i.v. application
  healthy volunteers in whom the effect was dominant in the face and upper trunk: nine out of ten
Human skin [2]; bolus 1 μmol/kg b.w./h compared with continuous 100 pmol/kg b.w./h
  increase of skin temperature, bolus versus continuous infusion: significantly higher increase of ST
Human skin [2]; bolus injection 1 μmol/kg b.w./h, maximum after 30 min, n=8
  maximum increase of skin temperature ΔT vs basal: 2.7 °C
Human skin [2]; bolus injection, after 60 min
  skin temperature course after bolus: slight decrease of ST
Human skin [2]; bolus injection, after 120 min
  skin temperature compared to basal: still elevated
Human skin [2]; continuous i.v. 100 pmol/kg b.w./h, after 5 min, n=10, mean±SEM
  increase of skin temperature ΔT vs basal: 1.2 °C
Human skin [2]; continuous i.v. 100 pmol/kg b.w./h, after 30 min, n=10, mean±SEM
  increase of skin temperature ΔT vs basal: 1.8 °C
Human skin [2]; continuous i.v. 100 pmol/kg b.w./h, between 30 and 60 min
  further increase of skin temperature compared to 30 min: no significant increase of ST
Human skin [2]; i.v. infusion 7.5 pmol/kg b.w./h over 30 min, n=9
  increase of skin temperature ΔT vs basal: 1.25 °C
Human skin [2]; i.v. infusion 15 pmol/kg b.w./h, n=9
  increase of skin temperature ΔT vs basal: 2.1 °C
Human skin [2]; i.v. infusion 30 pmol/kg b.w./h, n=9
  increase of skin temperature ΔT vs basal: 2.4 °C
Human skin [2]; immediately after infusion of 30 pmol/kg b.w./h was stopped
  skin temperature after stop of infusion: slowly decreased
